# Source: IntAct's records for PubMed 31515488
# B1: Pre-B-cell leukemia transcription factor 4 (Homo sapiens), Q9BYU1 (parent)
# chain: MAAPPRPAPSPPAPRRLDTSDVLQQIMAITDQSLDEAQARKHALNCHRMKPALFSVLCEIKEKTVVSIRGIQDEDPPDAQLLRLDNMLLAEGVCRPEKRGRGGAVARAGTATPGGCPNDNSIEHSDYRAKLSQIRQIYHSELEKYEQACREFTTHVTNLLQEQSRMRPVSPKEIERMVGAIHGKFSAIQMQLKQSTCEAVMTLRSRLLDARRKRRNFSKQATEVLNEYFYSHLNNPYPSEEAKEELARKGGLTISQVSNWFGNKRIRYKKNMGKFQEEATIYTGKTAVDTTEVGVPGNHASCLSTPSSGSSGPFPLPSAGDAFLTLRTLASLQPPPGGGCLQSQAQGSWQGATPQPATASPAGDPGSINSSTSN
# partner: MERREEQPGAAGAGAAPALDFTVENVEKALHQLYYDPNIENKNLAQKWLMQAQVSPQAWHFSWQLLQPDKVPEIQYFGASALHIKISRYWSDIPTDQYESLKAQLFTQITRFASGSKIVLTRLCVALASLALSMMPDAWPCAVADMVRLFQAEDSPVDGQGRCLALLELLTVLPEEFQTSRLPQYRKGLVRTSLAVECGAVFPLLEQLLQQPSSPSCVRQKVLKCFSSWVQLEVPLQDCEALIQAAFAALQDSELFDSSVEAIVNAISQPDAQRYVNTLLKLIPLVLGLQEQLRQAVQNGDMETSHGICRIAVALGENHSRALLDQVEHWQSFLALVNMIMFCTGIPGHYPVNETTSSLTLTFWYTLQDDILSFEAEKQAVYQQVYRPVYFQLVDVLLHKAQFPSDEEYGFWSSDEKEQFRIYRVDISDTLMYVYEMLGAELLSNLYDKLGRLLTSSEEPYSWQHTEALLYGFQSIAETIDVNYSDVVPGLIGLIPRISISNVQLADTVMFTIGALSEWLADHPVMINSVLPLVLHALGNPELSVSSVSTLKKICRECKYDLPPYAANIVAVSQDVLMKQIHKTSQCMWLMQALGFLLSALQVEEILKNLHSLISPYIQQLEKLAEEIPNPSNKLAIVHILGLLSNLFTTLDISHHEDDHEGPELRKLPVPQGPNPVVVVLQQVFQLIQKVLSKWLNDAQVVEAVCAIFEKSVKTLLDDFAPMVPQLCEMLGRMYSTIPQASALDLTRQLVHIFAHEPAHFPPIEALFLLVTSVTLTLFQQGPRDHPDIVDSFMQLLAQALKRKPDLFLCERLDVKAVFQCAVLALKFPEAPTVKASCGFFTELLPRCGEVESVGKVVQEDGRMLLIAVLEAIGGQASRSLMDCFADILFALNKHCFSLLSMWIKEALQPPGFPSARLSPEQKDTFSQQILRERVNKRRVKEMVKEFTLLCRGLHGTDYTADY
# B2: Tripartite motif-containing protein 59 (Homo sapiens), Q8IWR1 (parent)
# chain: MHNFEEELTCPICYSIFEDPRVLPCSHTFCRNCLENILQASGNFYIWRPLRIPLKCPNCRSITEIAPTGIESLPVNFALRAIIEKYQQEDHPDIVTCPEHYRQPLNVYCLLDKKLVCGHCLTIGQHHGHPIDDLQSAYLKEKDTPQKLLEQLTDTHWTDLTHLIEKLKEQKSHSEKMIQGDKEAVLQYFKELNDTLEQKKKSFLTALCDVGNLINQEYTPQIERMKEIREQQLELMALTISLQEESPLKFLEKVDDVRQHVQILKQRPLPEVQPVEIYPRVSKILKEEWSRTEIGQIKNVLIPKMKISPKRMSCSWPGKDEKEVEFLKILNIVVVTLISVILMSILFFNQHIITFLSEITLIWFSEASLSVYQSLSNSLHKVKNILCHIFYLLKEFVWKIVSH
# partner: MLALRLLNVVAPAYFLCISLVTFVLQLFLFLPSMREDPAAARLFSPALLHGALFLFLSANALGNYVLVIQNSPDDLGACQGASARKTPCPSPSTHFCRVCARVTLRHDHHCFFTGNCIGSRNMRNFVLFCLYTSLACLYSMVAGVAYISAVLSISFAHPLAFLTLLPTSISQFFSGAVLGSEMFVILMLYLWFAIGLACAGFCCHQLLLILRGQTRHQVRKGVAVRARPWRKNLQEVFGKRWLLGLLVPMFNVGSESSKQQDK
# B3: Coiled-coil domain-containing protein 33 (Homo sapiens), Q8N5R6-5 (parent)
# chain: MGEPGPPSPPAPKAAPGLIDSFSEMNNYRRAMQKMAEDILSLRRQASILEGENRILRSRLAQQEEEEGQGKASEAQNTVSMKQKLLLSELDMKKLRDRVQHLQNELIRKNDREKELLLLYQAQQPQAALLKQYQGKLQKMKALEETVRHQEKVIEKMERVLEDRLQDRSKPPPLNRQQGKPYTGFPMLSASGLPLGSMGENLPVELYSVLLAENAKLRTELDKNRHQQAPIILQQQALPVDPGELGAGGDLTERLQETHGPGHSECTETLPAQDLLSGTSDKFNLLAKLEHAQSRILSLESQLEDSARRWGREKQDLATRLQEQEKGFRHPSNSIIIEQPVSDPPGVAPRGSGGGAGSHRTPKVTGP
# partner: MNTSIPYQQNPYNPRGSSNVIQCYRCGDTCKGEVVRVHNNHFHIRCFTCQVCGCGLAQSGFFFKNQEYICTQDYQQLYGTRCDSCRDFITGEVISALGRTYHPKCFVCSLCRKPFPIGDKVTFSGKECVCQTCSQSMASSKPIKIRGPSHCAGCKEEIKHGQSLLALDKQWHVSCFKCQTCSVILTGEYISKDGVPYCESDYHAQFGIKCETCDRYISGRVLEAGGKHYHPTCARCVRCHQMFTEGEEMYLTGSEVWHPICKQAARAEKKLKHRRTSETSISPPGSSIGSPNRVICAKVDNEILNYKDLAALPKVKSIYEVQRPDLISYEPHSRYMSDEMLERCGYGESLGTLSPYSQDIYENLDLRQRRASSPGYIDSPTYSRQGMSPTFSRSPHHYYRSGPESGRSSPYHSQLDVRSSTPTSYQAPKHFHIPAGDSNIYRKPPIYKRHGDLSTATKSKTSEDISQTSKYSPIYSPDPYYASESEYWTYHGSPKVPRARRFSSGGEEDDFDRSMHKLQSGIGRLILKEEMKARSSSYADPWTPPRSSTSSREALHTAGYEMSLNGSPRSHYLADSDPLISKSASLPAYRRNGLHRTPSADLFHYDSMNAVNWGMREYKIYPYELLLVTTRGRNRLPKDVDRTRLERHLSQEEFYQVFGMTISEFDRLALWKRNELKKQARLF
# B4: Isoform 1 of 1-aminocyclopropane-1-carboxylate synthase-like protein 1 (Homo sapiens), Q96QU6-1 (parent)
# chain: MFTLPQKDFRAPTTCLGPTCMQDLGSSHGEDLEGECSRKLDQKLPELRGVGDPAMISSDTSYLSSRGRMIKWFWDSAEEGYRTYHMDEYDEDKNPSGIINLGTSENKLCFDLLSWRLSQRDMQRVEPSLLQYADWRGHLFLREEVAKFLSFYCKSPVPLRPENVVVLNGGASLFSALATVLCEAGEAFLIPTPYYGAITQHVCLYGNIRLAYVYLDSEVTGLDTRPFQLTVEKLEMALREAHSEGVKVKGLILISPQNPLGDVYSPEELQEYLVFAKRHRLHVIVDEVYMLSVFEKSVGYRSVLSLERLPDPQRTHVMWATSKDFGMSGLRFGTLYTENQDVATAVASLCRYHGLSGLVQYQMAQLLRDRDWINQVYLPENHARLKAAHTYVSEELRALGIPFLSRGAGFFIWVDLRKYLPKGTFEEEMLLWRRFLDNKVLLSFGKAFECKEPGWFRFVFSDQVHRLCLGMQRVQQVLAGKSQVAEDPRPSQSQEPSDQRR
# partner: B4 chain
# B5: WASH complex subunit 3 (Homo sapiens), Q9Y3C0 (parent)
# chain: MDEDGLPLMGSGIDLTKVPAIQQKRTVAFLNQFVVHTVQFLNRFSTVCEEKLADLSLRIQQIETTLNILDAKLSSIPGLDDVTVEVSPLNVTSVTNGAHPEATSEQPQQNSTQDSGLQESEVSAENILTVAKDPRYARYLKMVQVGVPVMAIRNKMISEGLDPDLLERPDAPVPDGESEKTVEESSDSESSFSD
# partner: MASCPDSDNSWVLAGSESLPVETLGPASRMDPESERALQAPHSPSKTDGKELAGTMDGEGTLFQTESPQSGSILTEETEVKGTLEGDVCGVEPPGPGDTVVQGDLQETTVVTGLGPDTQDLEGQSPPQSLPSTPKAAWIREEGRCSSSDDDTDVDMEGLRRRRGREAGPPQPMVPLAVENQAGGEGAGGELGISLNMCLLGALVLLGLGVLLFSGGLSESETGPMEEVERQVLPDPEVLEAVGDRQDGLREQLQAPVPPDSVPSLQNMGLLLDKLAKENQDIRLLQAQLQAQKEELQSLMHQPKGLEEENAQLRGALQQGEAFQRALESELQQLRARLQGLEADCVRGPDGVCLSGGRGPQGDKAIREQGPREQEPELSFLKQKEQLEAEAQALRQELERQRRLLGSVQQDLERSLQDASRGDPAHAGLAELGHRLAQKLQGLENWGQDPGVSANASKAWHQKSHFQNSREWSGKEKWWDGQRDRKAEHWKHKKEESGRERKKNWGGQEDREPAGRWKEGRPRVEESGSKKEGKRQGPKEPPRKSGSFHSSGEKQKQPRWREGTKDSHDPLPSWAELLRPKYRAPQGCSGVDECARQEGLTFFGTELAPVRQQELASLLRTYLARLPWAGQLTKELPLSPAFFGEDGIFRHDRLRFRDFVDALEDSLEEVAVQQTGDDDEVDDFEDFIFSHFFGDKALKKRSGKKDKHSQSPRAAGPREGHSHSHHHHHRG
# B6: Protein BEX5 (Homo sapiens), Q5H9J7 (parent)
# chain: MENVPKENKVVEKAPVQNEAPALGGGEYQEPGGNVKGVWAPPAPGFGEDVPNRLVDNIDMIDGDGDDMERFMEEMRELRRKIRELQLRYSLRILIGDPPHHDHHDEFCLMP
# B7: WD repeat domain-containing protein 83 (Homo sapiens), Q9BRX9 (parent)
# chain: MAFPEPKPRPPELPQKRLKTLDCGQGAVRAVRFNVDGNYCLTCGSDKTLKLWNPLRGTLLRTYSGHGYEVLDAAGSFDNSSLCSGGGDKAVVLWDVASGQVVRKFRGHAGKVNTVQFNEEATVILSGSIDSSIRCWDCRSRRPEPVQTLDEARDGVSSVKVSDHEILAGSVDGRVRRYDLRMGQLFSDYVGSPITCTCFSRDGQCTLVSSLDSTLRLLDKDTGELLGEYKGHKNQEYKLDCCLSERDTHVVSCSEDGKVFFWDLVEGALALALPVGSGVVQSLAYHPTEPCLLTAMGGSVQCWREEAYEAEDGAG
# Variants of: B1
# Conditions: with ipo13_human IPO13, O94829
row,Variant,effect of a mutation on the interaction
1,R327Q,with no effect
2,T283M,with no effect

# Variants of: B2
# Conditions: with zdh22_human ZDHHC22, Q8N966
row,Variant,effect of a mutation on the interaction
1,I277V,with no effect

# Variants of: B3
# Conditions: with ablm3_human ABLIM3, O94929
row,Variant,effect of a mutation on the interaction
1,G196R,with no effect
2,P203L,disrupting interaction strength
3,M25V,with no effect
4,R30L,with no effect

# Variants of: B4
# Conditions: with 1a1l1_human ACCS
row,Variant,effect of a mutation on the interaction
1,S393L,disrupting interaction strength

# Variants of: B5
# Conditions: with pbip1_human PBXIP1, Q96AQ6
row,Variant,effect of a mutation on the interaction
1,F44L,with no effect

# Variants of: B6
# Conditions: with emil1_human EMILIN1, Q9Y6C2
# emil1_human EMILIN1, Q9Y6C2, sequence (Q9Y6C2 whole entry): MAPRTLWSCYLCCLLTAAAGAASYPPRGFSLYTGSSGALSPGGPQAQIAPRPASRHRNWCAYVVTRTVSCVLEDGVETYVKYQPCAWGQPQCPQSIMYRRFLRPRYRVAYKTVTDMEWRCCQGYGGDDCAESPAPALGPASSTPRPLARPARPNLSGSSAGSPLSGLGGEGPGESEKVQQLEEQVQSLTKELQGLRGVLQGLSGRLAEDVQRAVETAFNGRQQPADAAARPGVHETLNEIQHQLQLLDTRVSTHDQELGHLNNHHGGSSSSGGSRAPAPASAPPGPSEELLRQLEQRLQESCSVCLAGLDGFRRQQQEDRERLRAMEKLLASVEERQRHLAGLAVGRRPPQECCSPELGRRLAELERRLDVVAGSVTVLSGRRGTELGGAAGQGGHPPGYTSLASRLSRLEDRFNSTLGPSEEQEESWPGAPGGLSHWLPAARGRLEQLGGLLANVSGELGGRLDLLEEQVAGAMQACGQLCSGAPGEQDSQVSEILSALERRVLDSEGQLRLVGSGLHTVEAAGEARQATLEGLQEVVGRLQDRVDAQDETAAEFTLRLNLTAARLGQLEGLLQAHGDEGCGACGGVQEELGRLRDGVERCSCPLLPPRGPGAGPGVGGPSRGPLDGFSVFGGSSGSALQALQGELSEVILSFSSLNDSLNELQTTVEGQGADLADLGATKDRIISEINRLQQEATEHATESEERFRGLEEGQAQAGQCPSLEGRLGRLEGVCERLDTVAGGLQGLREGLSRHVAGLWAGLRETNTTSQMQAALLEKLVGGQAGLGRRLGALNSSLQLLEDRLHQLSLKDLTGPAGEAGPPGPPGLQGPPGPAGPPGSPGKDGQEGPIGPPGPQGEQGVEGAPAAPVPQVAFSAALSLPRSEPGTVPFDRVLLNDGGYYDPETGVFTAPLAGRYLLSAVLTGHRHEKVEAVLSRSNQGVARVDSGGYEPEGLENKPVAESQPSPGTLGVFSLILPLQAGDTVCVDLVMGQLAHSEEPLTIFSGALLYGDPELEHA
row,Variant,effect of a mutation on the interaction
1,E74D,disrupting interaction strength

# Variants of: B7
# Conditions: with keap1_human KEAP1, Q14145
# keap1_human KEAP1, Q14145, sequence (Q14145 whole entry): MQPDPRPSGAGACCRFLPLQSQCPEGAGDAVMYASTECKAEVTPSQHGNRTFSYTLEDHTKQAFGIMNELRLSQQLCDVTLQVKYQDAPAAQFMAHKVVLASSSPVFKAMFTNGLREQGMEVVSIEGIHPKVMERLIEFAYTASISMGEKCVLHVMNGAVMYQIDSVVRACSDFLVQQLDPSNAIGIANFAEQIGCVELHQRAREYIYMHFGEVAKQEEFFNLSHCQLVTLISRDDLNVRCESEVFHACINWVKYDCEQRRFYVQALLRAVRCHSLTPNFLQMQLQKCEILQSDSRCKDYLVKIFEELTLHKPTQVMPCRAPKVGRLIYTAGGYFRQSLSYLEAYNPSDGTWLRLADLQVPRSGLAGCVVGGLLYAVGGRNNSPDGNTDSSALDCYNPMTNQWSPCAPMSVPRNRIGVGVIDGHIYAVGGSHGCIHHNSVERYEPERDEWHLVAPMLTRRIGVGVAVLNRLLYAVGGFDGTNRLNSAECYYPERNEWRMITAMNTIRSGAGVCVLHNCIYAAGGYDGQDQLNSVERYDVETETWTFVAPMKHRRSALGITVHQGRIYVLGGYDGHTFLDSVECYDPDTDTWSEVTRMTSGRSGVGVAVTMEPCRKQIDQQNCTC
row,Variant,effect of a mutation on the interaction
1,G278S,with no effect
